The record followed here is article PMC8217473 (2021).

As usually defined, the Kd is a measure of binding affinity in units of concentration. High values mean a looser complex, low ones a tighter complex.

For assay [1], the target named is T1, RBD-Fc (receptor binding domain of SARS-CoV-2 spike fused to Fc) (SARS-CoV-2, UniProt P0DTC2). Nature of the assay: SPR. (In general: SPR reads the build-up and loss of mass on a sensor chip optically.)
For assay [2], the target named is T1, RBD-Fc (receptor binding domain of …). Kind of assay: SPR. This is another data set of the same source.

Numbering of substitutions follows the chain as printed. Read-outs that look alike come from different tables or passages of the source.

B1: 3N39 mutant sACE2-His (domain or fragment)
chain: QSTIEEQVETFLDNFNHKAEDLFYQSSLASWNYNTNITEENVQNMNIAGDKWSAFLKEQSTFAQMYPLQEIQHLTVKLQLQALQQNGSSVLSEDKSKRLNTILNTMSTIYSTGKVCNPDNPQECLLLEPGLNEIMANSLDYNERLWAWESWRSEVGKQLRPLYEEYVVLKNEMARANHYEDYGDYWRGDYEVNGVDGYDYSRGQLIEDVEHTFEEIKPLYEHLHAYVRAKLMNAYPSYISPIGCLPAHLLGDMWGRFWTNLYSLTVPFGQKPNIDVTDAMVDQAWDAQRIFKEAEKFFVSVGLPNMTQGFWENSMLTDPGNVQKAVCHPTAWDLGKGDFRILMCTKVTMDDFLTAHHEMGHIQYDMAYAAQPFLLRNGANEGFHEAVGEIMSLSAATPKHLKSIGLLSPDFQEDNETEINFLLKQALTIVGTLPFTYMLEKWRWMVFKGEIPKDQWMKKWWEMKREIVGVVEPVPHDETYCDPASLFHVSNDYSFIRYYTRTLYQFQFQEALCQAAKHEGPLHKCDISNSTEAGQKLFNMLRLGKSEPWTLALENVVGAKNMNVRPLLNYFEPLFTWLKDQNKNSFVGWSTDWSPYAD
Consider B1, for which the dissociation constant (Kd) worked out at 0.29 nM in assay [1] and 0.32 nM in assay [2].

B2: 3N39v2 mutant sACE2-His (domain or fragment)
chain: B1 chain with E9K, I47N, H73N
On to B2, for which the Kd in assay [2] worked out at 0.54 nM.
